Laboratory results as given in the RNAGym collection of RNA variant scans (doi:10.1073/pnas.2313332121).

B1: TPR t1 (parent)
chain: GACCAAUCUGCCCUCAGAGCUCGAGAACAUCUUCGGAUGCAGAGGAGGCAGGCUUCGGUGGCGCGAUAGCGCCAACGUCCUCAACCUCCAAUGCAUCCCACCACAUGAUGAUGCCUGAAGAGCCUUGGUUUUUUG

Variants of: B1
Test: polymerase ribozyme fitness, log enrichment relative to wild type (log ratio); higher = more active; in vitro selection for triplet polymerase activity
How it was run: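 Input and output libraries were sequenced on Illumina after a single in vitro selection round, run in triplicate on PCR-built, transcribed mutant libraries of each subunit of a heterodimeric triplet polymerase ribozyme. Selection annealed libraries to a biotinylated primer, the partner subunit and triplets, incubated them frozen at −7 °C, then gel-excised extended constructs for streptavidin-bead capture and RT-PCR. Genotypes with ≥10 input reads and ≥1 read per output were kept. Fitness is the logarithm, taken in base 2, of genotype enrichment divided by wild-type enrichment, using inverse-variance-weighted replicate averages.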

Variant | polymerase ribozyme fitness (log ratio)
C8U C22G G45A G47C A100U | -4.96
U9A A24C U59C A91U A111C | -6.66
U9A G51A U112A | -2.45
U9C C13U A27U A46C G52A G113A | -6.07
U9C U21A C49G C101A | -1.26
U9G C20A U131A | -1.99
C8U G93C C114U | -1.54
U9A A46G C85U U125A | -1.94
U9C U125A | 0.386
U9G C20G G44C C72U C114G | -6.99
C8U U33A | -3.59
C8U G19A U21C U55C | -2.54
U9C U133G | 0.11
U9G G10C | 0.723
U9G G10U | 0.261
U9A C12G U87G C99U | -2.31
U9C C62U C102U | -1.87
U9C C12U A16G C49G | 0.31
C8U A50U | -0.00813
C8U A24G G44U U106C | -1.81
C8U C114G U126C | -1.85
U9C A41U C70A U125A | -4.15
U9C A29G G58A A90U G110A | -4.22
U9A A29U G36C G44U C72A A84G | -3.62

Variant | polymerase ribozyme fitness (log ratio)
U9C A43C A46G | -1.4
U9G C13U C73U A119G | 1.11
U9A A26U C40G G58C U125G | -4.12
U9G C72U C94A G110A G113U A121G | -6.14
U9G A37U G39A G45U A46U C94G | -5.9
U9A A37U A41G | 0.164
U9A A18U A41G U92A | -2.99
U9C C53U G69C | -0.176
C8U G42A C88U | -0.816
C8U G117U U126C | -3.25
C8U C28G | -1.19
C8U A24G U112G | -0.0167
C8U U92A | -2.72
C8U U9C A119U | 0.976
U9A A46U G63C C82G C86A | -1.25
C8U G17A | -2.57
U9G C73U G113A | -0.47
C8U C20U A37U A43U | -2.77
U9A C13G C20A A43G A95G | -4.1
U9G C73U C82A A83C A118U G128A | -1.71
U9G A83G G93A C102A C123U | -2.93
C8U C72U U87C | 0.806
U9G C20U G51U C94U | -4.89
C8G U9G | 0.256

Variant | polymerase ribozyme fitness (log ratio)
U9A C22U | -3.34
U9G C11U G35U G69U C89U | -3.13
U9G G44U G58A G60U C102U U106A U133C | -3.81
U9A C13U C79U C114A | 0.44
U9A A16U G63U U132A | -1
C8U C13A C85A U106C C123A | -0.442
U9G C72G U87G | -0.102
U9C A43G C89U | -0.469
U9G G17U G60C U96C C104U G117A | -3.16
U9G C70U | -0.679
C8U G71A | -0.229
C8U A27G C82A | -1.59
U9A G110C U130A | -4.06
C8U A119G U126G G127U | -0.0945
C8G U92A | -1.78
C8G U9C C56G | 0.364
C8U A26U U59G | -2.5
C8U G58A G110A | -1.27
C8U C40U | 0.0119
U9G C99U C124A U131G | -3.14
U9C C64A A74U U112G | -6.76
U9C G36U C104A C115A | -1.3
C8U A74G C123G | 1.71
U9A A37U | 0.568

Variant | polymerase ribozyme fitness (log ratio)
C8U G58U A111G U126C | -1.57
U9A G58A G61A C85A G113A | -0.721
U9G C72G | -0.437
C8U U9G U59C C72U | 0.524
U9A C64U G117A | 0.77
U9G C13G C53G C56U C86U A111U | -2.52
C8U U129G U133A | -1.94
C8U U21C U87G G122A | -0.0757
U9G G23U | -6.6
C8G U38C A50U C115A | 0.783
C8U C12U C70G C94A | -3.02
C8U G44U C88G U92A | -3.81
C8U U21C G122A | -0.0897
C8U C72A C98U U116A G128C | -6.24
U9C A83C | 0.121
U9C C15A G44U G60C A91U | -1.82
U9A A27U C28A U78C U96A U106A G117A | -4.8
U9C G19U C70U | -3.94
C8U A18U A50U G69C C82A C124G | -3
C8U G52U C56A G77U A121U | 1.55
C8U G63A C102A U106C G113A U130G | -5.25
U9A C53U | 0.789
U9G C72U C86A | -0.508
U9A C11A C70U C85U | -1.15

Variant | polymerase ribozyme fitness (log ratio)
C8U G44U C99U | -2.6
C8U U96G G110U | -2.02
U9A C89G A90U | -0.63
C8U C11A | 0.824
C8U G44A C56A C72A U81C A111C | -3.76
U9C C82A U109G C124U U131C | -3.57
C8U U9G A37G G117C | -0.0473
U9C G19A U96A A121G U132A | -1.11
U9A A16U A24C U33G G36A C115U | -7.16
U9C G45A C124U U126A U133A | -0.505
U9A G44A G69A C72U U87C | -3.54
U9C C70U | -0.0921
C8U G36A A66C A84C G117A | -3.32
U9C G47U G63U | -1.41
U9G C15A G58A C97U U116G U129G | -5.21
U9G C72G G113A G120A | -1.17
U9G C49A C104A | -1.57
C8U C13U A37C C70U A119G | -0.292
U9G A27C C98U | -4.04
U9G G45A G93U C114A | -2.75
C8U C13A A18C U54G C70U | -3.71
U9C A111U A121C U126A U130G | -4.36
C8G U9G C12G C49G A91U | -2.4
C8U U14C U78C U106A G120A | 1.87

Variant | polymerase ribozyme fitness (log ratio)
C8U G44U C88G | -1.96
U9A G42A G57U C115A G127U U131A | -3.74
C8U G117A A119U C123U U133G | -1.22
C8U C56U C89A A118U | -1.04
U9G C11G G45C | -5.66
U9A G63U G120C | 0.699
U9G G10U U14A C97U | -0.883
C8U | 0.471
U9A C73G G117A | 0.428
C8U C73A | 1.41
U9A A29U A41U G60A U78C G93U A119G | -2.57
U9A G51A G52A C70G C82U G120C | -5.71
U9C G52A C104U A121U | 2.1
U9A C20A | -2.35
U9G G48C G120A U130A G135U | -0.622
C8U C22U G39U G113A G120C C123A | -5.45
U9G C15A C97U A108G G120A | -1.87
U9C G17A A43U A50U A74C G120U | -4.05
U9C G39A A41C C72G A84C C86A C99A A121U | -6.53
U9A C56U C73U | 0.233
C8U C62U C79U C82U A91U A105G C123G U129G U131G | -5.84
C8U C49U G71C G117U G120A C124A | -1.83
C8U C64U U96C | -0.074
U9A C11U A100U | -0.0164

Variant | polymerase ribozyme fitness (log ratio)
U9G C82G | -0.102
C8U G61A | 0.644
C8U A24G G36A G44U | -2.87
C8U G48C C56A | -0.762
U9A C13U G63A C88A G113C U129G U134G | -3.06
U9A C62A C85G U131C | -1.16
C8U G19C G42U A91G C123U | -0.955
C8G U21A U38G C76U C88A U112G A121C | -4.14
C8U C22A A26G C28U C34A G63U C104A U112C G135A | -2.92
C8U U30C C49U C124G U133G | -3.25
U9A G39C C62A U78A U87G G110U | -5.8
U9A A16C C49U A66G C101G C123A | -4.86
U9G C53U A95C C115A | 0.969
C8U C94A | -0.617
U9A G45U C73U C98U | -0.532
C8U U14A G61A | -0.345
C8U G48A A50G | -1.52
U9G A26C U54A U55A C88U G93A | -6.29
C8G U14G C53U G71A | -0.0624
U9G C40G C94U C123A U125A | -0.873
U9G C20A C22U C86U | -4.49
U9C C15A G45C G57C U59A | 0.541
U9A C13G G35A | -3.79
